Measured values: article PMC7042716 (Cell, 2020)
Positions count from the first letter of the chain named.

B1: 561_01_21 (antibody, V domains shown)
VH: QRRLFQSGTEVKRPGASVKISCRADDDPYTDDDTFTKYYTHWIRQAPGQRPEWLGVISPHFARPIYSYKFQDRLTLTRDSSLTAVYFELRGLQPDDTGIYFCARDPFGDMYPHYNYHMDVWGGGTTVIVSA
VL: EVVLTQSPAILSVSPGDRVILSCKASEGLSSSDLAWYRFKGGQIPTLVIFGTSTRARGTPDRFSGSGSGTDFTLTISRVEPEDFATYYCQRYGGTPITFGGGTTLDKK
B2: 561_02_27 (antibody, V domains shown)
VH: B1 VH with R2G, F61Y, Q71R
VL: B1 VL with T52A, T54N, S77N
B3: 561_10_07 (antibody, V domains shown)
VH: QGRFFQSGAEVKRPGASVRISCRADDDPYTDDDTFTKYWTHWIRQAPGQRPEWLGVISPHFARPIYSYKFRDRLTLTRDSSLTAVYLELQGLQPDDSGIYYCARDPFGDRAPHYNYHMDVWGGGTAVIVSS
VL: B1 VL with K24R, S30D, S31P, S32T, D33H, G41R, T54N, G69E, T70A, S77T
B4: 561_02_47 (antibody, V domains shown)
V domain 1: B1 VH with F61Y, V127L
V domain 2: B1 VL with G41S, T52A, T54N, S64A, S77N
B5: 561_01_33 (antibody, V domains shown)
VH: B1 VH with R2G, Q71R
VL: B1 VL with T54N, S77N, E80Q
B6: 561_02_22 (antibody, V domains shown)
VH: B1 VH with R2G, T9A, Q71R
VL: B1 VL with G51A, T54N, R78K, E80Q
B7: 561_02_10 (antibody, V domains shown)
VH: B1 VH with R2G, Y39H, F61Y, D109N
VL: B1 VL with G41R, T52A, S77N
B8: 561_01_54 (antibody, V domains shown)
VH: B1 VH with R2G, G91D, P94S, Y116S
VL: B1 VL with G41S, T52A, T54N, S77N
B9: 561_09_23 (antibody, V domains shown)
VH: QAHLFQSGAELKRPGASVRISCRADDDPYTDDDTFTKYYTHWIRQAPGQRPEWLGVISPHFARPIYSYKFQDRLTLTRDSSLTAVYLELRSLRLDDTGIYYCARDPFGERAPHYNYHMDVWGAGTTVIVSS
VL: EVVLTQSPAILSASPGDRVVLSCRASEGLDSSQLAWYRFKDGQIPRLVLFGVSNRARGTPDRFSGGGSGADFTLTISRVEREDFATYYCQRFGATPITFGGGTRLDMN
B10: 561_09_71 (antibody, V domains shown)
VH: QLAQSGGGVKKPGASVKISCVTPESTFTKYWLHWVRQAPGQGFEWLGVVSPHGGRPMFANKFRDRLTLTRDIHTTTHYMELRGLTSDDTAIYYCARDSFGETFRHSGDQPYQMDVWGGGTNIVVSS
VL: EPVLTQSPGTLSLSPGERATLSCRASQGFSVDHLAWFQKRPGRPPRLLIFETSRRANGSPDRFSGSASGAEYTLTISNVEPEDFAVYYCQSYGSITPLIFGGGTRVDVK
B11: 561_01_23 (antibody, V domains shown)
VH: QLVQSGGGVRRPGASVKISCETPEYTFTKYWLHWLRQAPGRGLEWMGVVSPHGGRPMFAFEFRDRLTLTRDIHTTTHYMELRGLTSDDTAVYFCARDSFGETFRGHDQPYQMDVWGGGTTVVVSS
VL: EPVLTQSPGTLSLSPGEGATLSCRARQGFSADHVAWFQKKPGRPPRLLIFEASRRASGTPERFSGGGSGPEYTLTITRVEPEDFAVYYCQSYGSITPLVFGGGTRVDVK
B12: 561_02_21 (antibody, V domains shown)
VH: B11 VH with R10K, R41Q, R82G, S86L, F93Y, S98P, H106R, D107E, V121I, S124T
VL: B11 VL with P2A, V3L, G66S
B13: 561_03_78 (antibody, V domains shown)
VH: B11 VH with R82G, F93Y, S98P, V121I
VL: B11 VL with G18R, G66S
B14: 561_02_12 (antibody, V domains shown)
VH: B11 VH with Y25D, R41Q, Y78F, F93Y, S98P, Q111R, V121I
VL: B11 VL with L13V, G66S, P81A
B15: 561_03_07 (antibody, V domains shown)
VH: B11 VH with Y25D, R41Q, Y78F, R82G, F93Y, S98P, Q111R, V121I
VL: B11 VL with L13V, G66S
B16: 561_01_29 (antibody, V domains shown)
VH: B11 VH with I18V, V114L
VL: B11 VL with A19V, A52T
B17: 561_03_59 (antibody, V domains shown)
VH: B3 VH with G2R, F4L, A9T, R71Q, A84G, Q90K, P94L, Y101F
VL: EVVLTQSPAILSVSPGDRVSFSCRASEGLDTSQLAWYRFKRGQIPTLVIFATSNRARGTPDRFSGSGSGADFTLTINRVEPEDFATYYCQRYGATPITFGGGTTLDKK
B18: 561_08_52 (antibody, V domains shown)
VH: QLVQWGGGVKRPGASVRISCQCPEDTFTKYYIHWVRQAPGRGLEWLGMVSPHGGRPFHTSEFRDRLTMTRDIHETTHHMVLSGLGVADSGTYFCARDPLGEKSPAYSHHMDVWGGGATVIVSS
VL: AVVLTQSPVTLSVSPGETAILSCRASHGLDTRHVTWFQQKRGQAPRLLIFATYRRASGVSDRFRATDSGSATDFNLTITAVEPADFATYFCQTYGAITPITFGGGTKVDLK
B19: 561_09_89 (antibody, V domains shown)
VH: B18 VH with D71E, A87G
VL: B18 VL with T18S, I20V, Y53S, S68G, F90Y, V108L

How the values were obtained:
[1] = biological target: YU2_(gp140) (foldon trimer) (HIV-1 (strain YU2))
[2] = biological target: BG505_(SOSIP.664) Env trimer (HIV-1 BG505 (clade A), SOSIP.664 with …, stabilised)

Binder | binding result [1] | binding result [2]
B1 | binds | binds
B2 | binds | binds
B3 | binds | binds
B4 | binds | binds
B5 | binds | binds
B6 | binds | binds
B7 | binds | binds
B8 | binds | binds
B9 | binds | binds
B10 | binds | binds
B11 | binds | binds
B12 | binds | binds
B13 | binds | binds
B14 | binds | binds
B15 | binds | binds
B16 | binds | binds
B17 | binds | binds
B18 | binds | binds
B19 | binds | binds
